Laboratory results reported in article PMC4813160.

Biological target: Isocitrate dehydrogenase (IDH) from B. longum (BlIDH) (Bifidobacterium longum subsp. infantis ATCC 15697)
Experiment: SEC; gel filtration on a 10/300 Superdex 200 column, 50 mM NaH2PO4 and 150 mM NaCl at pH 7.2; standards ovalbumin, conalbumin, aldolase, ferritin, thyroglobulin; single symmetrical peak, native mass 83 kDa against about 45 kDa for the subunit

Q: “Isocitrate dehydrogenase (IDH) from B. longum (BlIDH) (enzyme)” was tested. Which stoichiometry N did it give?
A: Its stoichiometry N is 2.
